How the values were obtained:
Assay in all cases: EMSA; EMSA: PBS pH 7.4 (or KH2PO4/10 mM MgCl2 pH 6.0), 3.6 or 5 uM protein, 25 uM nt DNA, 37 C 15 min per strand, 0.8% agarose 1x TBE; cryo-EM: 20 mM KH2PO4 (Results: 10 mM), 10 mM MgCl2 pH 6.0, 37 C; native MS: 100 mM ammonium acetate pH 7, 37 C
Conditions in all cases: protein: recombinant, tags: N-terminal 6His vector tag (20 aa) retained, chain copies: 10
LiRecT Q107H = target: T1, LiRecT Q107H (Listeria innocua CLIP 11262, UniProt Q92FL9 1-271, Q107H)
T1 sequence: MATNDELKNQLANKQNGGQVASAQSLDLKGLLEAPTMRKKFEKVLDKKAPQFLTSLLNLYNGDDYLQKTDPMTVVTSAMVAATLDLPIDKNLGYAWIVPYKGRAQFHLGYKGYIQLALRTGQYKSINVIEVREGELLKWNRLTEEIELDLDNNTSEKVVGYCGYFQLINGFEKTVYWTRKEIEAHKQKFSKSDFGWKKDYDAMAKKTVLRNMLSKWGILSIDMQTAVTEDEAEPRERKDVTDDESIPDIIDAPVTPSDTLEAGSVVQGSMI

LiRecT K180A = target: T2, LiRecT K180A (Listeria innocua CLIP 11262, UniProt Q92FL9 1-271, K180A)
T2 sequence: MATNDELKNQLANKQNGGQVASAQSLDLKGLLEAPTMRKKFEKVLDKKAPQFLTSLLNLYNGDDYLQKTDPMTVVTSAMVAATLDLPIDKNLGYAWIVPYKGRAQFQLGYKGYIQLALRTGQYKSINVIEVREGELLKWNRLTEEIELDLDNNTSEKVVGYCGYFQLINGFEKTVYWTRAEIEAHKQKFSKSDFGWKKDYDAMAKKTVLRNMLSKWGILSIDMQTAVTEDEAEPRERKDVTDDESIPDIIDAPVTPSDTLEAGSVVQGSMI

LiRecT K157A = target: T3, LiRecT K157A (Listeria innocua CLIP 11262, UniProt Q92FL9 1-271, K157A)
T3 sequence: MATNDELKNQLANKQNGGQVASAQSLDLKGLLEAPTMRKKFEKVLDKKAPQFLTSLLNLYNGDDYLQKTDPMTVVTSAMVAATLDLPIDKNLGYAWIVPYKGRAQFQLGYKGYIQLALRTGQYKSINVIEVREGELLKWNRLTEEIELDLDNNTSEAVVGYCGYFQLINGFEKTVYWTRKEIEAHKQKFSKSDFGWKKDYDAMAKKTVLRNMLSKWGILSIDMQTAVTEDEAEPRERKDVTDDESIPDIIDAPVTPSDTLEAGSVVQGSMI

LiRecT Q107A = target: T4, LiRecT Q107A (Listeria innocua CLIP 11262, UniProt Q92FL9 1-271, Q107A)
T4 sequence: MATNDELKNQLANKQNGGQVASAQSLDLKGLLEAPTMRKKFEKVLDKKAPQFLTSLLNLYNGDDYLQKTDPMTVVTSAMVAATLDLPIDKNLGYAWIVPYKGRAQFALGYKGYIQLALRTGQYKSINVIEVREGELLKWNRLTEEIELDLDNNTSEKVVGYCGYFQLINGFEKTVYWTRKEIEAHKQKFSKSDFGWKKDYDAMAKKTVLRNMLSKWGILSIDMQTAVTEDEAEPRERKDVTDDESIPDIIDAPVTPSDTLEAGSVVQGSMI

LiRecT Y100A = target: T5, LiRecT Y100A (Listeria innocua CLIP 11262, UniProt Q92FL9 1-271, Y100A)
T5 sequence: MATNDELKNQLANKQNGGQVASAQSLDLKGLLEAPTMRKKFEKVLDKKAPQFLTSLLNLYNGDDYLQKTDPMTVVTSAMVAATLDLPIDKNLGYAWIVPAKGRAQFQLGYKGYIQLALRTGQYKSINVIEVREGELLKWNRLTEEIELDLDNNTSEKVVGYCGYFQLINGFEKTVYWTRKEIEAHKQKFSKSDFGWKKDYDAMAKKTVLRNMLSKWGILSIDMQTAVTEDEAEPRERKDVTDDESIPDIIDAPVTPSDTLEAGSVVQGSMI

[1] = label: 5'-Cy3;5'-Cy5, 49 bp, 1 nt 5' overhang at each end

Measured: binding result

CCATCCGCAAAAATCGAGCTATGCAGGGCGATTCTGCTCTAAGCCATCCG (ssDNA) [Cy5-50mer]
binds: LiRecT Q107H; label: 5'-Cy5, single strand | LiRecT K180A; label: 5'-Cy5, single strand | LiRecT K157A; label: 5'-Cy5, single strand | LiRecT Q107A; label: 5'-Cy5, single strand | LiRecT Y100A; label: 5'-Cy5, single strand

B1: 50-mer duplex intermediate (sequential addition) (dsDNA)
DNA 1: GCGGATGGCTTAGAGCAGAATCGCCCTGCATAGCTCGATTTTTGCGGATG
DNA 2: CCATCCGCAAAAATCGAGCTATGCAGGGCGATTCTGCTCTAAGCCATCCG
binds: LiRecT Q107H; [1] | LiRecT K180A; [1] | LiRecT K157A; [1] | LiRecT Q107A; [1] | LiRecT Y100A; [1]

GCGGATGGCTTAGAGCAGAATCGCCCTGCATAGCTCGATTTTTGCGGATG (ssDNA) [Cy3-50mer]
binds: LiRecT Q107H; label: 5'-Cy3, single strand | LiRecT K180A; label: 5'-Cy3, single strand | LiRecT K157A; label: 5'-Cy3, single strand | LiRecT Q107A; label: 5'-Cy3, single strand | LiRecT Y100A; label: 5'-Cy3, single strand

Reference: paper PMC9772228, “Structure of a RecT/Redβ family recombinase in complex with a duplex intermediate of DNA annealing”
